# Ends that are not written are not given here. * marks the point of attachment. Biotin = O=C1N[C@H]2[C@H](CS[C@H]2CCCCC(=O)*)N1
# B1: 30-mer inhibitor peptide (30-IP), QTVTWPDMELPLPRNITEGQARGSVILTVK-Biotin (peptide)
# peptide: QTVTWPDMELPLPRNITEGQARGSVILTVK(Biotin)
# modifications: not fully specified (N-terminus, C-terminus); printed as QTVTWPDMELPLPRNITEGQARGSVILTVK-Biotin
# Molecular target: aggrecan degrading metallo protease (ADMP)
# Assay: cell-based or functional assay
binder,measurement,value
B1,"IC50 for the inhibition of ADMP activity (microplate assay, cleavage of plate-bound 41-PS detected with BC-3 antibody)",11 µM

# Source: patent US7223834 (Bristol-Myers Squibb, dated 2007)
